Reference: the supplement of paper PMC9170038

System: MS2 coat protein
Assay: apparent KD of MS2 coat protein; designed switch direction (-1 OFF switch, 1 ON switch): -1; higher = weaker reporter binding
Procedure, shortened: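 For each design, the apparent KD is the median over clusters of curves fitted to normalised cluster fluorescence. Clusters held RNA switches with common flanks, transcribed on Illumina chips by stalled E. coli RNA polymerase. These were titrated with SNAP-549-labelled MS2 coat protein, doubling from 0.7 or 1.5 nM to 3 µM, without input, with 200 uM small-molecule ligand, or with an oligonucleotide input.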

[1] = Eterna round: R95, input ligand: FMN 200 uM
[2] = Eterna round: R95, input ligand: microRNA oligo, concentration not stated
[3] = Eterna round: R95, input ligand: none
[4] = input ligand: microRNA oligo, concentration not stated

| Sequence | apparent KD of MS2 coat protein [1] [nM] | apparent KD of MS2 coat protein [2] [nM] | apparent KD of MS2 coat protein [3] [nM] | apparent KD of MS2 coat protein (input ligand: FMN 200 uM) [nM] | apparent KD of MS2 coat protein [4] [nM] | apparent KD of MS2 coat protein (input ligand: none) [nM] |
| --- | --- | --- | --- | --- | --- | --- |
| CAUGAUCUUCGGAUCAUGUACAUGAGGAUCACCCAUGUUACGAGUUGAUUUUCAUACAAGCUUUUUGCUCGUCUUAU [Sensor v3 - Turn-off variant 1 - 27] (puzzle: Sensor v3, turn-off variant 1) | 226 | 330 | 240 | – | – | – |
| CAUGAUUGGCGAGGAUAUUGAUCUACAUGGCGACGAGAAGGCGCCUGUCACAUGAGGAUCACCCAUGUGAGUCUGGUGAAUGAG [Ex NG1 #85] (Eterna round: R96, puzzle: Exclusion NG 1) | – | – | – | 67.2 | 25 | 42.6 |
| CAUGAUUGGGAAGGAUAUUGACCUAGUUAGCGCCGAGAAGGUCCCUGUCACAUGAGGAUCACCCAUGUGAAUCUGGUGUUCGAG [Ex NG1 #94] (Eterna round: R96, puzzle: Exclusion NG 1) | – | – | – | 36.7 | 17.9 | 19.7 |
| CAUGCUUCAUAGGAUAUGGAAGACGUACCGUCGCUAGAAGGAUGAACAUGAGGAUCACCCAUGUAAUACAGGGC [Eternabot (L2) Solution 64] (Eterna round: R97, puzzle: Exclusion 6) | – | – | – | 169 | – | 68.6 |
| CAUGGAUGUGAGCCGCAUUACAUGAGGAUCACCCAUGUCAACAAGCUUUUUGCUUGUCUUACGCGGCGGCACCAGAA [Getelexe] (Eterna round: R96, puzzle: Sensor v3, turn-off variant 1) | – | – | – | 13 | 6.81 | 14.9 |
| CAUGGAUGUGAGCCGCAUUACAUGAGGAUCACCCAUGUCAACAAGCUUUUUGCUUGUCUUACGCGGCGGCACCAGAA [Getelexe] (puzzle: Sensor v3, turn-off variant 1) | 14.3 | 8.03 | 10.8 | – | – | – |
| CAUGUGUUAGGAUAUGCACAGAUCUCCUAAUGGAGAUCUGUGCAGAAGGGACAUGAGGAUCACCCAUGUUGAUG [Mod of Brourd 14 - Jieux - Exclusion 4] (Eterna round: R97, puzzle: Exclusion 4) | – | – | – | 78.6 | – | 48.6 |
| CAUGUUUGUCGUUGAUCCAACAUGAGGAUCACCCAUGUCUCUUUAGCUUUUUGCUCGUCUUAUCCUCCUUUGUUCAC [JR_STOV1_v2_Sub0101] (Eterna round: R97, puzzle: Sensor, turn-off variant 1) | – | – | – | 65.5 | – | 401 |
| CAUUACUGCAGGCUUUGGGACAUGAGGAUCACCCAUGUUCGUCUUAUUGAUCUAGGUACGCUGACGUACCUAGAUCU [JL-sv1-2.26 Brourd mod] (puzzle: Sensor v3, turn-off variant 1) | 17.6 | 20.8 | 15.1 | – | – | – |
| CAUUAUUAUCGAGGAUAUCGUAUUGAGAUACUAUGAGAAGGCGGGAUAAACAUGAGGAUCACCCAUGUGAGCCGGAUGCUUGUG [Ex NG1 #36] (Eterna round: R96, puzzle: Exclusion NG 1) | – | – | – | – | 13.5 | – |
| CAUUGUGUUGAGGAUAUGCGCCGGCUCGCUGGCGCAGAAGGCGGCACAUGAGGAUCACCCAUGUCAGUUCGCGA [salish99_ex6_r004_416] (Eterna round: R97, puzzle: Exclusion 6) | – | – | – | 452 | – | 38 |
| CAUUGUUAUCGAGGAUAUCGUAUUGAGAUACUACGAGAAGGCGGACUAAACAUGAGGAUCACCCAUGUGAGACGGAUGCUUGGG [Ex NG1 #33] (Eterna round: R96, puzzle: Exclusion NG 1) | – | – | – | 59 | 21 | 34.3 |
| CAUUUCUGUCGUUGAUCCAACAUGAGGAUCACCCAUGUCUCUUUAGCUUUUUGCUCGUCUUAUCCUCCUUUGUUCAC [JR_STOV1_Sub099] (Eterna round: R97, puzzle: Sensor, turn-off variant 1) | – | – | – | 499 | – | 835 |
| CAUUUGUGAGGAUAUCAGGUGUGCUAGCGUACUGGUACAUCUGAGAAGGCACAUGAGGAUCACCCAUGUUCCUC [Mat - Exclusion 4 - Mod of JL - D35] (puzzle: Exclusion 4) | – | 44.1 | – | – | – | – |
| CAUUUGUGAGGAUAUCAGGUGUGCUAGCGUACUGGUACAUCUGAGAAGGCACAUGAGGAUCACCCAUGUUUCUU [Mat - Exclusion 4 - Mod of JL - D37] (puzzle: Exclusion 4) | – | 15.9 | – | – | – | – |
| CCAAUGUAAGGAUAUCGUGCAAGUUUCAAAAGAGGCUUGUGCGAGAAGGUACAUGAGGAUCACCCAUGUAGGUU [Omei Ex4 B2] (Eterna round: R97, puzzle: Exclusion 4) | – | – | – | 340 | – | 78.4 |
| CCACCUCACGUCAGGAUAUCCAUCUCGAGUGAGGAGGAGAAGGGACAUGAGGAUCACCCAUGUAUAGAAAGAAA [Veaonce] (Eterna round: R97, puzzle: Brourd's mod of Exclusion 4) | – | – | – | 35.1 | – | 22.1 |
| CCACGACAUGAGGAUCACCCAUGUGAGGAUAUGGCCUGAAAAGCGUGAGCAGAAUCAAUCAGAAGGCGCGUGGG [salish99_ex1_r4_060] (Eterna round: R97, puzzle: Exclusion 1) | – | – | – | 73.2 | – | 45.7 |
| CCACUGUCAGGAUAUCGUGCAUAACGUUAACAAUUUAUGUGCGAGAAGGGACAUGAGGAUCACCCAUGUAAACG [Omei Ex4 A28PK4] (Eterna round: R97, puzzle: Exclusion 4) | – | – | – | 233 | – | 166 |
| CCAGUGUGAGGAUAUACAUGGAUAGUUUUAUAUAGUAUGUUACAUGAGGAUCACCCAUGUAGAAGGUAUAUCGG [15.1, 13.8 kcal, A 31%] (Eterna round: R97, puzzle: Exclusion 2) | – | – | – | 22.5 | – | 28.7 |
| CCAUAUAACUGAGGAUAUGAUCACCACUAACAUUCAGAAGGCAGACAUGAGGAUCACCCAUGUGAUUUCUCAAUAUUAUACAUC [Prohibition 76 - Jieux - Exclusion NG 1] (Eterna round: R96, puzzle: Exclusion NG 1) | – | – | – | – | 375 | – |
| CCAUCACAUGAGGAUCACCCAUGUUAGGAUAUCGUGCUGAUACCAUGUAUUGAAGUAGCGAGAAGGAGCGUUGG [Eternabot (L1) Solution 53] (Eterna round: R97, puzzle: Exclusion 1) | – | – | – | 83.6 | – | 48 |
| CCAUCGAGUGUGAGGAUAUGCUGUUCCUUGGAGCAGCAGAAGGCACAUGAGGAUCACCCAUGUGGAUACGGUGG [Mat - Exclusion 4 - JL Mod - D80] (puzzle: Brourd's mod of Exclusion 4) | – | 33.4 | – | – | – | – |
| CCAUCGUGUGUGAGGAUAUGCUGGUCCUUGGAUCAGCAGAAGGCACAUGAGGAUCACCCAUGUGAAUACGAUGG [Mat - Exclusion 4 - JL Mod - D87] (puzzle: Brourd's mod of Exclusion 4) | – | 14.9 | – | – | – | – |
| CCAUGUAGAGGAUAUCUUAAGCUAGACAUGAGGAUCACCCAUGUGACUAUUCCUAUGAGCGGAGAAGGCUGAACCA [Eternabot (L2) Solution 64] (Eterna round: R97, puzzle: Exclusion 5) | – | – | – | 29.7 | – | 29.6 |
| CCCACAAGCUUUUUGCUCGACAUGAGGAUCACCCAUGUAAAAUGGGUUAUAUAUAUAUGAAACAUAUAUAUAUACCU [-21.6, -47.5 kcal, A 35%] (Eterna round: R97, puzzle: Sensor, turn-off variant 1) | – | – | – | 43.9 | – | 47.6 |
| CCCAGAUAGGAAGGAUAUUGUACAUGAGGAUCACCCAUGUAAUAAAUGAGGAUCACGGAUGUAGACAAGAAGGUCCGGAUAAGC [Ostracism 6 - Jieux - Exclusion NG 2] (Eterna round: R96, puzzle: Exclusion NG 2) | – | – | – | 57.5 | 29.3 | 39.5 |
| CCCAGGUCAUCUCCCGGGAACAACAUGAGGAUCACCCAUGUCUAGGAUAUCCACCAGUCAAUAAAGGAGAAGGAGACGGUGGUU [Edatarte] (Eterna round: R96, puzzle: Exclusion NG 3) | – | – | – | – | 20.2 | – |
| CCCAGUUACGGAGGAUAUUGUACAUGAGGAUCACCCAUGUAAUAAAUGAGGAUUUCGGGUGUCUACAAGAAGGCCGGGAUAGGC [Ostracism 18 - Jieux - Exclusion NG 2] (Eterna round: R96, puzzle: Exclusion NG 2) | – | – | – | 262 | 85.3 | 66 |
| CCCAGUUAGGAAGGAUAUUGUACAUGAGGAUCACCCAUGUAAUAAAUGAGGAUCACGGAUGUAGACAAGAAGGUCCGGAUAGGC [Ostracism 8 - Jieux - Exclusion NG 2] (Eterna round: R96, puzzle: Exclusion NG 2) | – | – | – | 104 | 41.5 | 55.5 |
